# Results as given in US11504432B2, “Delivery system for targeted delivery of a therapeutically active payload” (TECHNISCHE UNIVERSITÄT DRESDEN, priority 2016, dated 2022).
# T1: PSCA (Homo sapiens, UniProt O43653)
# T1 construct: expressed in transfected cells; host or cells: 293T^PSCA cells
# T1 sequence (O43653 12-83): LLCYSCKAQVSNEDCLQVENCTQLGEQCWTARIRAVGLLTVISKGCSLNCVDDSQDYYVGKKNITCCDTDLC
# Tests used:
# [1] = tested on: 293T-Blue^TLR3/PSCA reporter cells; experiment: NFkappaB activation, SEAP reporter, PSCA-positive cells; format: cell-based
# Experimental: The target delivery of TLR3 agonist Riboxxol® to the endosomal compartment of PSCA-positive cells and the resulting NFkappaB activation and induction of apoptosis by the use of the BIC delivery system was investigated using 293T-Blue^TLR3/PSCA reporter cells. 50.000 293T-Blue^TLR3/PSCA cells in 200 μl HEKBlue detection medium were plated in 96 well plates and treated with increasing concentrations of BICs containing RIBOXXOL® and scFv(h-AM1)-BAP or were treated with BICs containing Riboxxol® and scFv(MR1.1)-BAP, which should not bind to the PSCA-positive target cells. The induced secretion of the reporter SEAP, or its enzymatic activity in HEK Blue medium was measured at 655 nm in an ELISA reader after 24 h. […] […] A plateau of activation is reached at a concentration of the anti-PSCA immunoconjugate at 25 nM. […] Apoptosis levels of treated cells were normalized to untreated 293T-Blue^TLR3/PSCA cells by subtracting basal apoptosis levels from induced apoptosis-levels in the treatment groups.
# [2] = tested on: 293T^EGFRvIII/c-Luc cells; experiment: Luciferase knockdown by scFv-P-BAP guided polyplexes; format: cell-based; conditions: inhibitor added 4 h prior transfection
# Experimental: As positive RNAi control, cells were transfected with siLuc3 using the transfection reagent Interferin®. For investigating the route of internalization, endocytose inhibitors 0.6 μg/ml filipin III and 6 μg/ml chlorpromazine (both Sigma Aldrich) were added 4 h prior transfection of cells.
# wild type EGFR = wild type EGFR (Homo sapiens, UniProt P00533); conditions: cited from earlier work
# tumors = conditions: in vivo; cited from earlier work
# EGFRvIII neo-epitope = EGFRvIII neo-epitope (Homo sapiens, UniProt P00533, DELINS30-297G); conditions: cited from earlier work
# 293T^EGFRvIII cells = experiment: EGFRvIII receptor internalization, FACS; format: cell-based; conditions: crosslinking with scFv plus anti-myc-antibodies, 2 h to 48 h
# Experimental: (§1) For studies of EGFRvIII and PSCA internalization, 293T^EGFRvIII and 293T^PSCA cells, respectively, were carefully detached with Trypsin/EDTA solution (Sigma/Aldrich). After repeated washing in 1 mg/ml BSA/PBS, 2×10^5 cells were fed with fresh medium and plated in 96 round bottom wells. Crosslinking of receptors was accomplished by incubation with 1 μg parental scFv specific for the cognate receptor for 1 h at 4° C. followed by extensive washing with PBS and treatment with 0.5 μg of biotin-labelled anti-myc antibody (Miltenyi Biotech) for 10 min at 4° C., followed by extensive washing with PBS and feeding with fresh medium. To achieve a monovalent binding of receptors, the 293T^EGFRvIII and 293T^PSCA cells were incubated only with scFv(MR1.1) and scFv(AM1), respectively, for 1 h at 4° C., followed by extensive washing with PBS and feeding with fresh medium. EGFRvIII surface expression was monitored after incubation at 37° C. in a humidified CO2 incubator after 2 h, 4 h, 8 h, 24 h, and 48 h utilizing an anti-biotin-PE antibody (Miltenyi Biotech) for the crosslinked receptors and incubation of biotinylated anti-myc antibody for 10 min at 4° C. followed by anti-biotin-PE antibody staining for 10 min at 4° C., for cells with monovalent binding of receptors. All obtained data were analyzed by FlowJo software version 7.6.5 (TreeStar Inc., Ashland, USA).
# PSCA = biological target: T1, PSCA; experiment: Binding affinity (KD) by flow cytometry on 293T^PSCA cells; conditions: FIG. 9
# Experimental: For determination of binding affinity, murine scFv(AM1) and the humanized scFv(h-AM1) were incubated in descending concentrations with 293T^PSCA cells. After detection with a secondary anti-myc-PE-antibody the MFIs were determined using a MACSQuant Cytometer (Miltenyi Biotech) and FlowJo software and the Kd values were calculated with the PRISM software program. FIG. 9 depicts the graphs for the KD value calculations.
# 293T^PSCA cells = experiment: PSCA receptor internalization, FACS; format: cell-based; conditions: crosslinking with scFv plus anti-myc-antibodies, 2 h to 48 h
# Experimental: as §1
# EGFRvIII = biological target: T2, EGFRvIII (Homo sapiens, UniProt P00533, DELINS30-297G); experiment: Flow cytometry binding of scFvs to 293T^EGFRvIII cells; conditions: 1 μg scFv
# T2 construct: expressed in transfected cells; host or cells: 293T cells with ectopic EGFRvIII (293T^EGFRvIII)
# Experimental: To investigate scFv(MR1.1)-P-BAP binding to EGFRvIII-293T target cells with ectopic expression of the cognate surface receptor, 2×10^5 cells were incubated with 1 μg of recombinant scFv and scFv-P-BAPs, respectively. The bound antibodies were detected either via their myc-epitope using anti-myc/FITC antibody or via their biotin residue using anti-biotin/PE antibody (1:10; Miltenyi Biotec, Bergisch Gladbach, Germany). Cells stained only with secondary antibody were included as a control. […] At least 10,000 stained cells were measured by flow cytometry (MACSQuant, Miltenyi Biotec, Bergisch Gladbach, Germany) and analyzed by FlowJo software version 7.6.5 (TreeStar Inc., Ashland, USA).
# avidin = avidin (Gallus gallus, UniProt P02701); experiment: Conjugation of biotinylated scFvs to avidin, Western blot; format: binding; conditions: molar ratios from 1:1 to 4:1
# Chain of avidin (P02701 25-152): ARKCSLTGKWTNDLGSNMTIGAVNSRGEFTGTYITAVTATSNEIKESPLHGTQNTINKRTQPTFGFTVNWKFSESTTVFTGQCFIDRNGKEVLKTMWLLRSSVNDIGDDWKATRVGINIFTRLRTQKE
# Experimental: Conjugation of recombinant biotinylated single chain antibodies was investigated in Western blot experiments. For this 10.7 pmol of recombinant scFv-P-BAP and scFv-BAP was incubated for 30 min at RT with […] as depicted in FIG. 11c for scFv(MR1.1)-P-BAP and FIG. 12 for scFv(MR1.1)-BAP and scFv(h-AM1)-BAP. The avidin/scFv-BAP complexes were subjected to non-reducing SDS-PAGE. After protein transfer onto a Westran PVDF membrane (Whatman GmbH, Dassel, Germany), proteins were detected by a monoclonal murine c-myc-specific antibody (1:5,000, Invitrogen, Carlsbad, USA) and a HRP-labeled rabbit anti-mouse secondary antibody (1:1,000; Dako, Glostrup, Denmark), and after stripping of the membranes by a HRP-conjugated biotin-specific antibody (1:8,000; Sigma-Aldrich, St. Louis, USA). Membranes were visualized and documented using the Luminata Classico Western HRP substrate (Merck Millipore, Darmstadt, Germany) and the imaging system LAS3000 (FujiFilm Europe, Düsseldorf, Germany).
molecule,measurement,setting,value
"CN(C)CCCN1c2ccccc2Sc2ccc(Cl)cc21 [chlorpromazine, reference compound]",inhibition of chlatrin-mediated endocytosis of BICs,[1]; 31 μg/ml of chlorpromazine,effectively inhibited
"CCCCC[C@@H](O)[C@H]1C(=O)O[C@H](C)[C@@H](O)/C=C/C=C/C=C/C=C/C=C(\C)[C@@H](O)C[C@H](O)C[C@H](O)C[C@H](O)C[C@H](O)C[C@H](O)C[C@@H]1O [filipin III, reference compound]",effect on induction of the reporter SEAP by BICs,[1]; 0.3 μg/ml filipin III,slightly weakened induction
same,effect of endocytosis inhibitor on delivery of EGFRvIII-specific polyplexes,[2],inhibited
"scFv(MR1.1): EGFRvIII-specific single chain fragment variable from the literature [30, 31] (protein, left off: small tags and cut ends) scFv: QVKLQQSGGGLVKPGASLKLSCVTSGFTFRKFGMSWVRQTSDKRLEWVASISTGGYNTYYSDNVKGRFTISRENAKNTLYLQMSSLKSEDTALYYCTRGYSPYSYAMDYWGQGTTVTVSSSGGGSGGGGSGGGGSDIELTQSPASLSVATGEKATIRCMTSTDIDDDMNWYQQKPGEPPKFLISEGNTLRPGVPSRFSSSGTGTDFVFTIENTLSEDVGDYYCLQSWNVPLTFGDGTKLEIT",cross-reaction with wild type EGFR,wild type EGFR,does not cross-react
same,retention in tumors,tumors,excellent retention
same,affinity to EGFRvIII neo-epitope,EGFRvIII neo-epitope,high affinity
same,EGFRvIII internalization,293T^EGFRvIII cells,time-dependent
"scFv(h-AM1): humanized PSCA-specific scFv with c-Myc-Tag, Bio-Tag BAP and His6, SEQ ID NO: 2 (protein, Humanized antibody) scFv: METDTLLLWVLLLWVPGSTGDAAQPARRARRTKLGTELGSEVQLLESGGGLVQPGGSLRLSCVASGFTFSSYTMSWVRQAPGKGLEWVSYIHNGGGHTYYADSVKGRFTISRDNSKNTLYLQMNSLRAEDTAVYYCTRRMYYGNSHWYFDVWGAGTRVTITSAKTTPPSVYGGGGSGGGGSGGGGSTNSDIQMTQSPSSLSASVGDRVTITCRTSQSISNYLNWYQQKPGKAPKLLIYYTLKLNSGVPSRFSGSGSGTDFTLTISSLQPEDFATYYCQQSKTLPWTFGGGTKLEIKRADAAPTVSGPEQKLISEEDLNSAVDMSGLNDIFEAQKIEWHEGAPSSHHHHHH",affinity to PSCA compared to parental murine scFv,PSCA,improved affinity
same,PSCA internalization,293T^PSCA cells,time-dependent
"scFv(AM1): murine 7F5-derived single chain antibody fragment specific for prostate stem cell antigen (PSCA) (protein, listed as Mus musculus) scFv: METDTLLLWVLLLWVPGSTGDAAQPARRARRTKLGTELGSQVKLQESGGGLVQPGGSLKLSCVASGFTFSSYTMSWVRRTPEKRLEWVAYIHNGGGHTYYPDTIKGRFTISRDNAKNTLFLEMSSLKSEDTAMYYCTRRMYYGNSHWYFDVWGAGTSVTVSSAKTTPPSVYGGGGSGGGGSGGGGSTNSDIVMTQSPSSLSASLGDRVTINCRTSQDISNYLNWYQLTPDGTVKLLIYYTLKLNSGVPSRFSGSGSGTDYSLTINNLEKEDFATYFCQQSKTLPWTFGGGTKLEIKRADAAPTVSGPKLSSKLKVTVNGTAYDVDVDVDKSHENPMGTILFGGGTGGAPAPAAGGAGAGKAGEGEIPAPLAGTVSKILVKEGDTVKAGQTVLVLEAMKMETEINAPTDGKVEKVLVKERDAVQGGQGLIKIGDLELIEGSSGPEQKLISEEDLNSAVDHHHHHH",binding to EGFRvIII-positive 293T^EGFRvIII cells,EGFRvIII,did not recognize
"scFv(AM1)-P-BAP: scFv(AM1) fused to PSTCD biotin acceptor peptide, SEQ ID NO: 1 (protein, listed as Mus musculus) scFv: METDTLLLWVLLLWVPGSTGDAAQPARRARRTKLGTELGSQVKLQESGGGLVQPGGSLKLSCVASGFTFSSYTMSWVRRTPEKRLEWVAYIHNGGGHTYYPDTIKGRFTISRDNAKNTLFLEMSSLKSEDTAMYYCTRRMYYGNSHWYFDVWGAGTSVTVSSAKTTPPSVYGGGGSGGGGSGGGGSTNSDIVMTQSPSSLSASLGDRVTINCRTSQDISNYLNWYQLTPDGTVKLLIYYTLKLNSGVPSRFSGSGSGTDYSLTINNLEKEDFATYFCQQSKTLPWTFGGGTKLEIKRADAAPTVSGPKLSSKLKVTVNGTAYDVDVDVDKSHENPMGTILFGGGTGGAPAPAAGGAGAGKAGEGEIPAPLAGTVSKILVKEGDTVKAGQTVLVLEAMKMETEINAPTDGKVEKVLVKERDAVQGGQGLIKIGDLELIEGSSGPEQKLISEEDLNSAVDHHHHHH",binding to EGFRvIII-positive 293T^EGFRvIII cells,EGFRvIII,did not recognize
"scFv(MR1.1)-P-BAP: scFv(MR1.1) fused to PSTCD biotin acceptor peptide, SEQ ID NO: 3 (protein, Single chain antibody fragment) scFv: METDTLLLWVLLLWVPGSTGDAAQPARRARRTKLGTELGSHMQVKLQQSGGGLVKPGASLKLSCVTSGFTFRKFGMSWVRQTSDKRLEWVASISTGGYNTYYSDNVKGRFTISRENAKNTLYLQMSSLKSEDTALYYCTRGYSPYSYAMDYWGQGTTVTVSSSGGGSGGGGSGGGGSDIELTQSPASLSVATGEKATIRCMTSTDIDDDMNWYQQKPGEPPKFLISEGNTLRPGVPSRFSSSGTGTDFVFTIENTLSEDVGDYYCLQSWNVPLTFGDGTKLEITKLSSKLKVTVNGTAYDVDVDVDKSHENPMGTILFGGGTGGAPAPAAGGAGAGKAGEGEIPAPLAGTVSKILVKEGDTVKAGQTVLVLEAMKMETEINAPTDGKVEKVLVKERDAVQGGQGLIKIGDLELIEGSSGPEQKLISEEDLNSAVDHHHHHH",conjugation to avidin,avidin,efficiently conjugated
same,binding to EGFRvIII-positive 293T^EGFRvIII cells,EGFRvIII,bind
